According to patent publication US20090324606A1 (published 2009):

B1: 3D12 (wild type, as tested in Table 12) (antibody, V domains shown)
VH: QVQLVQSGGGVVHPGRSLKLSCAGSGFTFSDYDMHWVRQAPGKGLEWVAVMWFDGTEKYSAESVKGRFTISRDNSKNTLFLQMNSLRADDTAVYYCAREPDWLLWGDRGALDVWGQGTTVTVSS
VL: DIVMTQSPSTLSASVGDRVTITCRASQSISSWLAWYQQKPGKAPKLLMYEASSLESGVPSRFSGSGSGTEFTLTISSLQPDDFAAYYCQHYNTYPYTFGQGTKLEIKR
B2: 3D12.3-8 (antibody, V domains shown)
VH: QVQLVQSGGGVVHPGRSLKLSCAGSGFTFSDYDMHWVRQAPGKGLEWVAVIWFDGTEKYSAESVKGRFTISRDNSKNTLFLQMNSLRADDTAVYYCAREPDWLLWGDRGALDVWGQGTTVTVSS
VL: DIVMTQSPSTLSASVGDRVTITCRASQSISSWLAWYQQKPGKAPKLLMYGASSLGSGVPSRFSGSGSGTEFTLTISSLHPDDFAAYYCQHYNTYPYTFGQGTKLEIKR
B3: 3D12.3-1 (RAZ1) (antibody, V domains shown)
VH: QVQLVQSGGGVVHPGRSLKLSCAGSGFTFSDYDMHWVRQAPGKGLEWVAVMWFDGTEKYSAESVKGRFTISRDNSKNTLFLQMNSLRADDTAVYYCAREPDWLLWGDRGALDVWGQGTTVTVSS
VL: DIVMTQSPSTLSASVGDRVTITCWASQSISSRLAWYQQKPGKAPKLLMYEATSLGSGVPSRFSGSGSGTEFTLTISSLQPDDFAAYYCQHYDTYPYTFGQGTKLEIKR
B4: 3D12.3-10 (antibody, V domains shown)
VH: QVQLVQSGGGVVHPGRSLKLSCAGSGFTFSDYDMHWVRQAPGKGFEWVAVMWFDGTEKYSAESVKGRFTISRDNSKNTLFLQMNSLRADDTAVYYCAREPDRLLWGDRGALDVWGQGTTVTVSS
VL: DIVMTQSPSTLSASVGDRVTITCRASQSISSWLAWYQQKPGKAPKLLMYEASSLGRGVPSRFSGSGSGTEFTLTISSLQPDDFAAYYCQHYSTYPYTFGQGTKLEIKR
B5: AR2 (affinity improved HuC25) (antibody, V domains shown)
VH: QVQLQESGGGLVQPGGSLRLSCAASGFTFSDHYMYWVRQAPGKGLEWVATISDGGSYTYYPDSVKGRFTTSRDNSKNTLYLQMNSLRAEDTAIYYCSRYRYDDAMDYWGQGTLVTVSS
VL: EIVLTQSPATLSLSPGERATISCRASESVDSYGHSFMQWYQQKPGQAPRLLIYRASNLEPGIPARFSGSGSGTDFTLTISSLEPEDFAVYYCQQGNEVPFTFGQGTKVEIKR
B6: AR1 (affinity improved HuC25) (antibody, V domains shown)
VH: QVQLQESGGGLVQPGGSLRLSCAASGFTFSDYYMYWVRQAPGKGLEWVATISDGGSYTYYPDSVKGRFTISRDNSKNTLYLQMNSLRAEDTAIYYCSRYRYDDAMDYWGQGTLVTVSS
VL: EIVLTQSPATLSLSPGERATISCRASESVDSYGHSFMQWYQQKPGQAPRLLIYRASNLEPGIPARFSGSGSGTDFTLTISSLEPEDFAVYYCQQGNEVPFTFGQGTKVEIKR
B7: Humanized C25 (HuC25) (antibody, V domains shown)
VH: QVQLQESGGGLVQPGGSLRLSCAASGFTFSDYYMYWVRQAPGKGLEWVATISDGGSYTYYPDSVKGRFTISRDNSKNTLYLQMNSLRAEDTAMYYCSRYRYDDAMDYWGQGTLVTVSS
VL: EIVLTQSPATLSLSPGERATISCRASESVDSYGHSFMQWYQQKPGQAPRLLIYRASNLEPGIPARFSGSGSGTDFTLTISSLEPEDFAVYYCQQSNEDPFTFGQGTKVEIKR
B8: WR1(V) (HuC25 derivative) (antibody, V domains shown)
VH: QVQLQESGGGLVQPGGSLRLSCAASGFTSSDHYMYWVRQAPGKGLEWVATISDGGSYTYYPDSVKGRFTVSRDNSKNTLYLQMNSLRAEDTAIYYCSRYRYDDAMDYWGQGTLVTVSS
VL: EIVLTQSPATLSLSPGERATISCRASESVDSYGHSFMQWYQQKPGQAPRLLIYRASNLEPGIPARFSGSGSGTDFTLTISSLEPEDFAVYYCQQGNEVPFTFGQGTKVEIKR
B9: WR1(T) (HuC25 derivative) (antibody, V domains shown)
VH: QVQLQESGGGLVQPGGSLRLSCAASGFTSSDHYMYWVRQAPGKGLEWVATISDGGSYTYYPDSVKGRFTTSRDNSKNTLYLQMNSLRAEDTAIYYCSRYRYDDAMDYWGQGTLVTVSS
VL: EIVLTQSPATLSLSPGERATISCRASESVDSYGHSFMQWYQQKPGQAPRLLIYRASNLEPGIPARFSGSGSGTDFTLTISSLEPEDFAVYYCQQGNEVPFTFGQGTKVEIKR

Experiments:
Hall (A1) toxin [1] = target: T1, Hall (A1) toxin (UniProt P0DPI0 2-1296)
Honey (A2) toxin [2] = target: T2, Honey (A2) toxin (UniProt Q45894 2-1296)
T2 sequence (Q45894 2-1296): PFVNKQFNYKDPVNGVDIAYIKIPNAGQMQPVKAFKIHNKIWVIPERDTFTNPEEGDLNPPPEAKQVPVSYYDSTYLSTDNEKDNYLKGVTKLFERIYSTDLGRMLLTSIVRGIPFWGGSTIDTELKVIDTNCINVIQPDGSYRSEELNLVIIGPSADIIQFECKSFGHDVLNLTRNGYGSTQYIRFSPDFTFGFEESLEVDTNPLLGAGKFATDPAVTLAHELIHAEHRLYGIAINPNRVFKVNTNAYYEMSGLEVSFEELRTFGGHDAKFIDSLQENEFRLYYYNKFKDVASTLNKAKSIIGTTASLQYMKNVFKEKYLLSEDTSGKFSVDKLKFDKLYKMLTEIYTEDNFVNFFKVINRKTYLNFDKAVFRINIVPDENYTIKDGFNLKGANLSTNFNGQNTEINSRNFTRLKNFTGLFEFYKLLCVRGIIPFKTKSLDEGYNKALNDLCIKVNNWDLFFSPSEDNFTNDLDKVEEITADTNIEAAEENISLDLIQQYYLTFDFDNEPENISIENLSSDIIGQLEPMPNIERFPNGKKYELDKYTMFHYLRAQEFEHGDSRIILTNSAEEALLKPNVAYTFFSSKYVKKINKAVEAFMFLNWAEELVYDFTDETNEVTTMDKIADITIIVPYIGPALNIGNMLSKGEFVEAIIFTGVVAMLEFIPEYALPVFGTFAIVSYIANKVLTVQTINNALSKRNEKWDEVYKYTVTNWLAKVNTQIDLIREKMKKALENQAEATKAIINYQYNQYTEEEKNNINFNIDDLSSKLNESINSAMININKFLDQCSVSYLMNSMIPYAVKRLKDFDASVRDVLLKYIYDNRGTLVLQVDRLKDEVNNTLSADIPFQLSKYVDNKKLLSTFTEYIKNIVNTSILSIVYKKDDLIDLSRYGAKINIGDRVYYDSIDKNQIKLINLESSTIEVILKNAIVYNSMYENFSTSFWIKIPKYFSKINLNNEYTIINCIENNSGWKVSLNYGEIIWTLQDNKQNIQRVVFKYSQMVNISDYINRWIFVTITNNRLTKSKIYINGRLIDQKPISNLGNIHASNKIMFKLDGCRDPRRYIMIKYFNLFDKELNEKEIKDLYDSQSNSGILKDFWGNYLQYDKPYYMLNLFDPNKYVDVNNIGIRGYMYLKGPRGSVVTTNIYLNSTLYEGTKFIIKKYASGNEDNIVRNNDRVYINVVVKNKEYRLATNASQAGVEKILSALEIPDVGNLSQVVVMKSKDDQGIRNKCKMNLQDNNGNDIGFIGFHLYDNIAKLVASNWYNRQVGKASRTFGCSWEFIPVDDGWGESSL

Hall (A1) toxin [3] = target: T1, Hall (A1) toxin; remark: listed apart in the source
Honey (A2) toxin [4] = target: T2, Honey (A2) toxin; remark: listed apart in the source

Binder | Kd (Hall (A1) toxin [1]) | Kd (Honey (A2) toxin [2]) | fold tighter binding than wild type 3D12 (Hall (A1) toxin [3]) | fold tighter binding than wild type 3D12 (Honey (A2) toxin [4])
B1 | 0.94 nM | 2.2 nM | – | –
B2 | 0.021 nM | 0.067 nM | > 10 fold | > 10 fold
B3 | 0.017 nM | 0.07 nM | > 10 fold | > 10 fold
B4 | 0.028 nM | 0.081 nM | > 10 fold | > 10 fold
B5 | 0.047 nM | – | – | –
B6 | 0.2 nM | 100 nM | – | –
B7 | 1.24 nM | 250 nM | – | –
B8 | 0.45 nM | 9 nM | – | –
B9 | 0.31 nM | 3.7 nM | – | –
